Results from article PMC10776578, “Epstein-Barr virus-driven B cell lymphoma mediated by a direct LMP1-TRAF6 complex” (Nature Communications, 2024).
Residue numbers refer to the chain shown, from its start. Names and notes keep the numbering of the source.

B1: R392A (protein, UniProt Q9Y4K3 1-522, looked up, variant R392A)
TNF receptor-associated …: MSLLNCENSCGSSQSESDCCVAMASSCSAVTKDDSVGGTASTGNLSSSFMEEIQGYDVEFDPPLESKYECPICLMALREAVQTPCGHRFCKACIIKSIRDAGHKCPVDNEILLENQLFPDNFAKREILSLMVKCPNEGCLHKMELRHLEDHQAHCEFALMDCPQCQRPFQKFHINIHILKDCPRRQVSCDNCAASMAFEDKEIHDQNCPLANVICEYCNTILIREQMPNHYDLDCPTAPIPCTFSTFGCHEKMQRNHLARHLQENTQSHMRMLAQAVHSLSVIPDSGYISEVRNFQETIHQLEGRLVRQDHQIRELTAKMETQSMYVSELKRTIRTLEDKVAEIEAQQCNGIYIWKIGNFGMHLKCQEEEKPVVIHSPGFYTGKPGYKLCMALHLQLPTAQRCANYISLFVHTMQGEYDSHLPWPFQGTIRLTILDQSEAPVRQNHEEIMDAKPELLAFQRPTIPRNPKGFGYVTFMHLEALRQRTFIKDDTLLVRCEVSTRFDMGSLRREGFQPRSTDAGV
B2: F471A (protein, UniProt Q9Y4K3 1-522, looked up, variant F471A)
TNF receptor-associated …: B1 TNF receptor-associated … with A392R, F471A
B3: Y473A (protein, UniProt Q9Y4K3 1-522, looked up, variant Y473A)
TNF receptor-associated …: B1 TNF receptor-associated … with A392R, Y473A

Assays:
GST-LMP1_181-386 = test: AlphaScreen PPI, TRAF6 mutants binding to LMP1; set-up: species or system Epstein-Barr virus; TRAF6 binding to LMP1 (AlphaScreen), mean: unit not given here; conditions: for effect of TRAF6 mutation on binding to LMP1 (in words): AlphaScreen PPI; for TRAF6 binding to LMP1 (AlphaScreen), mean / TRAF6 binding to LMP1 (AlphaScreen): Figure 2a; for TRAF6 binding to LMP1 (AlphaScreen), mean: mean of n = 3
Protocol: Fig. 2 LMP1 binds to the receptor-interacting surface of TRAF6. a Mutations within the receptor-interacting surface of TRAF6 affect binding to LMP1. The TRAF6 mutants R392A, K469A, F471A, and Y473A were tested LMP1 in AlphaScreen PPI experiments with GST-LMP1_181-386. Data are mean values ± SD of three independent experiments. Statistics: one-way ANOVA. b TRAF6 R392A differentiates between CD40 and LMP1/RANK. AlphaScreen PPI experiments with GST-CD40_216-277. Data are mean values ± SD of three independent experiments. […] AlphaScreen PPI experiments with GST-RANK314-355. Data are mean values ± SD of four independent experiments. Statistics: one-way ANOVA. d TRAF6 mutants that fail to interact with LMP1 in PPI assays are also unable to bind cellular LMP1. HEK293 cells were co-transfected with HA-LMP1 and the indicated Flag-TRAF6 mutants. Flag-TRAF6 was immunoprecipitated (IP) via its Flag-tag and coprecipitated HA-LMP1 was detected on immunoblots by an α-HA antibody. Uncropped blots in Supplementary Fig. 6b. For statistical analysis LMP1 signals were digitalized and quantified (graph). Data are mean values ± SD of three independent experiments. […] TRAF6 recruitment is dependent on amino acids 371 − 386 of LMP1 (small panel). Confocal microscopy images show representative cells of three independent experiments. Quantitative data are mean values ± SD of ten randomly selected cells per transfection of one representative experiment (graph). Scale bars: 10 µm. Statistics: one-way ANOVA. p-values: *p ≤ 0.05, **p ≤ 0.01, ***p ≤ 0.001, ****p ≤ 0.0001. Source data and exact p-values in the Source Data file.
AlphaScreen experiments were performed in 96- or 384-well plates (Perkin Elmer, OptiPlate). In both assay formats, His-TRAF and GST-LMP1, GST-CD40, or GST-RANK proteins were incubated together in 40 µL of PBS (protein concentrations were calculated to the final reaction volume of 60 µL) supplemented with 0.5% BSA (Sigma, #A7030) and 0.1% Tween-20 (AppliChem, #A4974), for 1 h at room temperature (RT). If not indicated otherwise, standard protein concentrations were 300 nM for His-TRAF proteins and 100 nM for GST-LMP1 proteins. Ni-NTA-acceptor (Perkin Elmer, #6760619 C) and GST-acceptor (Perkin Elmer, # 6765300) beads were added each to a final concentration of 1–4 µg per mL in a final reaction volume of 60 µL and incubated for 1 h at RT in the dark. AlphaScreen PPI signals were measured in a CLARIOstar reader (BMG Labtech GmbH).

NF-κB in TRAF6^-/- MEFs = test: NF-κB reporter assay, TRAF6 rescue of CTAR2 signalling; assay type: cell-based, mouse; set-up: unit not given here
Protocol: TRAF6^−/− cells (6 × 10^4) were seeded per well of a 6-well plate in DMEM full medium the day before transfection. Cells were transfected with 2 µg of the indicated pCMV-HA-LMP1 plasmids together with 0.5 µg of pRK5-Flag-TRAF6 plasmids or empty vector, 0.05 µg of NF-κB luciferase reporter 3xκB-Luc and 0.2 µg of pPGK-Renilla housekeeping control reporter using the PolyFect transfection reagent (Qiagen)[33]. After 4 h the transfection mix was removed, and the cells were kept overnight in DMEM full medium. NF-κB reporter and Renilla control activities were measured with the Dual-Luciferase reporter assay kit (Promega, #E1910) following the manufacturer’s instructions. Samples of each lysate were analyzed for LMP1 and TRAF6 expression by immunoblotting.

[1] = relative to mean wt 100, replicate 1
[2] = with A204xAxA (CTAR2-specific signalling), replicate 1
[3] = with A204xAxA/∆371-386 (inactive null control), replicate 1
[4] = with A204xAxA/∆371-386, mean of n = 5
[5] = with A204xAxA/∆371-386, replicate 2
[6] = with A204xAxA/∆371-386, replicate 3
[7] = with A204xAxA/∆371-386, replicate 4
[8] = with A204xAxA/∆371-386, replicate 5

Row | Molecule | effect of TRAF6 mutation on binding to LMP1 (in words) (GST-LMP1_181-386) | TRAF6 binding to LMP1 (AlphaScreen), mean (GST-LMP1_181-386) | TRAF6 binding to LMP1 (AlphaScreen) (GST-LMP1_181-386; [1]) | TRAF6 binding to LMP1 (AlphaScreen) (GST-LMP1_181-386; replicate 2) | TRAF6 binding to LMP1 (AlphaScreen) (GST-LMP1_181-386; replicate 3) | NF-κB reporter activity (NF-κB in TRAF6^-/- MEFs; [2]) | NF-κB reporter activity, mean (NF-κB in TRAF6^-/- MEFs; with A204xAxA, mean of n = 5) | NF-κB reporter activity (NF-κB in TRAF6^-/- MEFs; with A204xAxA, replicate 2) | NF-κB reporter activity (NF-κB in TRAF6^-/- MEFs; with A204xAxA, replicate 3) | NF-κB reporter activity (NF-κB in TRAF6^-/- MEFs; with A204xAxA, replicate 4) | NF-κB reporter activity (NF-κB in TRAF6^-/- MEFs; with A204xAxA, replicate 5) | NF-κB reporter activity (NF-κB in TRAF6^-/- MEFs; [3]) | NF-κB reporter activity, mean (NF-κB in TRAF6^-/- MEFs; [4]) | NF-κB reporter activity (NF-κB in TRAF6^-/- MEFs; [5]) | NF-κB reporter activity (NF-κB in TRAF6^-/- MEFs; [6]) | NF-κB reporter activity (NF-κB in TRAF6^-/- MEFs; [7]) | NF-κB reporter activity (NF-κB in TRAF6^-/- MEFs; [8])
1 | B1 | prevented the interaction of TRAF6 with LMP1 and RANK | 4.615 | 2.0 | 6.0 | 5.9 | 29.9 | 25.57 | 20.3 | 24.4 | 30.5 | 22.7 | 23.3 | 17.45 | 12.6 | 15.1 | 21.7 | 14.7
2 | B2 | complete loss of TRAF6 binding | 5.785 | 2.7 | 7.8 | 6.8 | 22.4 | 20.18 | 16.8 | 19.1 | 26.3 | 16.3 | 22.3 | 19.11 | 23.1 | 15.5 | 21.1 | 13.4
3 | B3 | complete loss of TRAF6 binding | 1.355 | 0.9 | 1.6 | 1.5 | 17.9 | 16.74 | 12.1 | 18.2 | 20.7 | 14.7 | 21.7 | 17.54 | 12.1 | 17.7 | 21.8 | 14.3
